Here are results for eleven sequences from the Immune Epitope Database (IEDB).

One assay concerns the target HLA-A*01:01. Put plainly: IEDB peptide-MHC binding, purified MHC/competitive/fluorescence; filed as Kd, often an IC50 or EC50 that approximates it; ≥ and ≤ were set here for values at or beyond the usual limits of such assays.
Assay [1] has as its target HLA-A*03:01. The description is as above.
For assay [2], the target named is HLA-A*26:01. Described as above.
Another assay concerns the target HLA-B*35:01. The assay is described as above.
For a further assay, the target named is HLA-A*11:01. Put plainly: IEDB peptide-MHC binding, purified MHC/direct/fluorescence; filed as Kd, often an IC50 or EC50 that approximates it; ≥ and ≤ were set here for values at or beyond the usual limits of such assays.
The target in the next assay is HLA-A*31:01. Put plainly: IEDB peptide-MHC binding, purified MHC/competitive/fluorescence; filed as Kd, often an IC50 or EC50 that approximates it; ≥ and ≤ were set here for values at or beyond the usual limits of such assays.
The next assay has as its target HLA-B*27:05. The assay is described as above.
Assay [3] has as its target HLA-A*02:01. Described as above. As to conditions: source organism: Vibrio cholerae 2740-80.
Assay [4] addresses HLA-A*02:11. The assay is described as above. The following applies: source organism: Vibrio cholerae 2740-80.
Assay [5] concerns the target HLA-A*02:12. Described as above. The following applies: source organism: Vibrio cholerae 2740-80.
In assay [6] the target is HLA-A*24:03. The description is as above. As to conditions: source organism: Vibrio cholerae 2740-80.
Assay [7] concerns the target HLA-A*29:02. The description is as above. As to conditions: source organism: Vibrio cholerae 2740-80.
A further assay has as its target HLA-A*68:02. The assay is described as above. As to conditions: source organism: Vibrio cholerae 2740-80.
The next assay deals with HLA-A*69:01. The description is as above. The following applies: source organism: Vibrio cholerae 2740-80.
For assay [8], the target named is HLA-B*15:01. Described as above.
Assay [9] deals with HLA-B*15:17. The description is as above. As to conditions: source organism: Vibrio cholerae 2740-80.
Assay [10] deals with HLA-B*18:01. Described as above. As to conditions: source organism: Vibrio cholerae 2740-80.
Assay [11] has as its target HLA-B*27:03. Described as above. The following applies: source organism: Vibrio cholerae 2740-80.
Assay [12] has as its target HLA-B*39:01. The assay is described as above. As to conditions: source organism: Vibrio cholerae 2740-80.
The target of assay [13] is HLA-B*46:01. The description is as above. The following applies: source organism: Vibrio cholerae 2740-80.
In a further assay the target is HLA-B*51:01. Described as above. The following applies: source organism: Vibrio cholerae 2740-80.
Assay [14] concerns the target HLA-B*57:01. The assay is described as above. As to conditions: source organism: Vibrio cholerae 2740-80.
For assay [15], the target named is HLA-A*02:01. Put plainly: IEDB peptide-MHC binding, purified MHC/direct/fluorescence; filed as Kd, often an IC50 or EC50 that approximates it; ≥ and ≤ were set here for values at or beyond the usual limits of such assays. The following applies: source organism: Brucella suis 1330.
The next assay addresses HLA-A*02:03. Described as above. As to conditions: source organism: Brucella suis 1330.
Assay [16] has as its target HLA-A*02:11. The description is as above. As to conditions: source organism: Brucella suis 1330.
Assay [17] deals with HLA-A*02:12. The description is as above. As to conditions: source organism: Brucella suis 1330.
The target in another assay is HLA-A*02:16. Described as above. As to conditions: source organism: Brucella suis 1330.
Another assay deals with HLA-A*02:19. Described as above. As to conditions: source organism: Brucella suis 1330.
Assay [18] addresses HLA-A*03:01. Described as above.
Assay [19] has as its target HLA-A*24:03. The description is as above. The following applies: source organism: Brucella suis 1330.
In assay [20] the target is HLA-A*26:01. Described as above. As to conditions: source organism: Brucella suis 1330.
The target of assay [21] is HLA-A*29:02. The description is as above. The following applies: source organism: Brucella suis 1330.
The target in assay [22] is HLA-B*15:01. The description is as above. The following applies: source organism: Brucella suis 1330.
Assay [23] has as its target HLA-B*15:17. The assay is described as above. The following applies: source organism: Brucella suis 1330.
The target of assay [24] is HLA-B*18:01. The description is as above. The following applies: source organism: Brucella suis 1330.
Assay [25] concerns the target HLA-B*27:03. The assay is described as above. As to conditions: source organism: Brucella suis 1330.
For assay [26], the target named is HLA-B*39:01. The assay is described as above. As to conditions: source organism: Brucella suis 1330.
For assay [27], the target named is HLA-B*46:01. The description is as above. As to conditions: source organism: Brucella suis 1330.
The target of assay [28] is HLA-B*57:01. The description is as above. As to conditions: source organism: Brucella suis 1330.
The mark [29] stands for this setting: source organism: Yersinia pestis Nepal516.
Where [30] appears, read: source organism: Vibrio cholerae 2740-80.
[31] abbreviates: source organism: Escherichia coli O157:H7.
The mark [32] stands for this setting: source organism: Salmonella enterica subsp. enterica serovar Typhi.
Where [33] appears, read: source organism: Powassan virus.

Turning to FVMSCKLLY, the dissociation constant (Kd) was 700 nM in the assay with HLA-A*01:01 (setting [29]), 1850 nM in the assay with HLA-A*03:01 [1] (setting [29]), 327 nM with HLA-A*26:01 [2] (setting [29]) and 3.5 nM in the assay with HLA-B*35:01 (setting [29]).
Consider VMYNLWKMK, for which the Kd with HLA-A*11:01 (source organism: Yellow fever virus 17D) stood at 6.3 nM; with HLA-A*31:01 (source organism: Yellow fever virus), 5.67 nM.
In the assay with HLA-B*27:05 (source organism: Influenza A virus (A/swine/Italy/1509-6/97(H1N1))), TRALVRTGM came in with a dissociation constant (Kd) of 8.3 nM.
For GKLKYRASY, the Kd with HLA-B*27:05 (source organism: Campylobacter jejuni subsp. jejuni NCTC 11168 = ATCC 700819) was determined as 4410 nM.
Consider VQPWLMVDV, for which the Kd with HLA-A*02:01 [3] is no less than 20000 nM; in the assay with HLA-A*02:11 [4] it was 119 nM; with HLA-A*02:12 [5], 1170 nM; with HLA-A*03:01 [1] (setting [30]), no less than 20000 nM; with HLA-A*24:03 [6], no less than 20000 nM; in the assay with HLA-A*26:01 [2] (setting [30]), no less than 20000 nM. Besides, the Kd with HLA-A*29:02 [7], with HLA-A*68:02, with HLA-A*69:01, in the assay with HLA-B*15:01 [8] (setting [30]), in the assay with HLA-B*15:17 [9] and with HLA-B*18:01 [10] was no less than 20000 nM each time. The Kd in the assay with HLA-B*27:03 [11], in the assay with HLA-B*39:01 [12], with HLA-B*46:01 [13], with HLA-B*51:01 and with HLA-B*57:01 [14] was no less than 20000 nM in each case.
In the case of QAHMGIAGL, the equilibrium dissociation constant (Kd) with HLA-A*02:01 [15], with HLA-A*02:03, with HLA-A*02:11 [16], with HLA-A*02:12 [17], with HLA-A*02:16 and with HLA-A*02:19 was no less than 20000 nM in each case. For the same sequence, the dissociation constant (Kd) with HLA-A*03:01 [18] (source organism: Brucella suis 1330) was no less than 20000 nM; with HLA-A*24:03 [19], no less than 20000 nM; with HLA-A*26:01 [20], no less than 20000 nM; with HLA-A*29:02 [21], no less than 20000 nM; in the assay with HLA-B*15:01 [22], no less than 20000 nM; with HLA-B*15:17 [23] it was 3 nM. Moreover, the Kd with HLA-B*18:01 [24], with HLA-B*27:03 [25], in the assay with HLA-B*39:01 [26], with HLA-B*46:01 [27] and with HLA-B*57:01 [28] was no less than 20000 nM throughout.
As for FRAQTKGKV, the Kd with HLA-B*27:05 (source organism: Escherichia coli 536) was 86.7 nM.
Regarding MIYMGLWLK, the Kd is 118 nM with HLA-A*03:01 [18] (setting [31]), 4.7 nM with HLA-A*11:01 (setting [31]) and 139 nM with HLA-A*31:01 (source organism: Escherichia coli O157:H7 str. Sakai).
On to KRIGASLAH, for which the Kd with HLA-B*27:05 (source organism: Mycobacterium tuberculosis H37Rv) was 171 nM.
On to ISANANFSY, for which the Kd in the assay with HLA-A*01:01 (setting [32]) was 28.8 nM; in the assay with HLA-A*03:01 [1] (setting [32]), no less than 20000 nM; with HLA-B*15:01 [8] (setting [32]), 210 nM; with HLA-B*35:01 (setting [32]) it was 24.7 nM.
On to KLKLKGTTY, for which the Kd was no less than 20000 nM in the assay with HLA-A*11:01 (setting [33]), 68.4 nM with HLA-A*03:01 [1] (setting [33]) and 2150 nM with HLA-A*31:01 (setting [33]).

What is called Kd is a measure of binding affinity in units of concentration. The low end stands for tighter binding, the high end for weaker binding.
